Substrate: CCCCC/C=C\C/C=C\C/C=C\C/C=C\CCCC(=O)O
Experiment: mass spectrometric product formation assay
Assay type: biochemical, Mus musculus
Details: 50 nM enzyme

Protein | Km [µM] | kcat [s^–1]
mCOX-2 (mouse COX-2) (Mus musculus; L489M) (protein) ANPCCSNPCQNRGECMSTGFDQYKCDCTRTGFYGENCTTPEFLTRIKLLLKPTPNTVHYILTHFKGVWNIVNNIPFLRSLIMKYVLTSRSYLIDSPPTYNVHYGYKSWEAFSNLSYYTRALPPVADDCPTPMGVKGNKELPDSKEVLEKVLLRREFIPDPQGSNMMFAFFAQHFTHQFFKTDHKRGPGFTRGLGHGVDLNHIYGETLDRQHKLRLFKDGKLKYQVIGGEVYPPTVKDTQVEMIYPPHIPENLQFAVGQEVFGLVPGLMMYATIWLREHNRVCDILKQEHPEWGDEQLFQTSRLILIGETIKIVIEDYVQHLSGYHFKLKFDPELLFNQQFQYQNRIASEFNTLYHWHPLLPDTFNIEDQEYSFKQFLYNNSILLEHGLTQFVESFTRQIAGRVAGGRNVPIAVQAVAKASIDQSREMKYQSLNEYRKRFSLKPYTSFEELTGEKEMAAELKALYSDIDVMEMYPALLVEKPRPDAIFGETMVELGAPFSLKGLMGNPICSPQYWKPSTFGGEVGFKIINTASIQSLICNNVKGCPFTSFNVQDPQPTKTATINASASHSRLDDINPTVLIKRRSTEL | 1.4 ± 0.3 | 3.3 ± 0.1
mCOX-2 (mouse COX-2) (Mus musculus) (protein) ANPCCSNPCQNRGECMSTGFDQYKCDCTRTGFYGENCTTPEFLTRIKLLLKPTPNTVHYILTHFKGVWNIVNNIPFLRSLIMKYVLTSRSYLIDSPPTYNVHYGYKSWEAFSNLSYYTRALPPVADDCPTPMGVKGNKELPDSKEVLEKVLLRREFIPDPQGSNMMFAFFAQHFTHQFFKTDHKRGPGFTRGLGHGVDLNHIYGETLDRQHKLRLFKDGKLKYQVIGGEVYPPTVKDTQVEMIYPPHIPENLQFAVGQEVFGLVPGLMMYATIWLREHNRVCDILKQEHPEWGDEQLFQTSRLILIGETIKIVIEDYVQHLSGYHFKLKFDPELLFNQQFQYQNRIASEFNTLYHWHPLLPDTFNIEDQEYSFKQFLYNNSILLEHGLTQFVESFTRQIAGRVAGGRNVPIAVQAVAKASIDQSREMKYQSLNEYRKRFSLKPYTSFEELTGEKEMAAELKALYSDIDVMELYPALLVEKPRPDAIFGETMVELGAPFSLKGLMGNPICSPQYWKPSTFGGEVGFKIINTASIQSLICNNVKGCPFTSFNVQDPQPTKTATINASASHSRLDDINPTVLIKRRSTEL | 2.3 ± 0.3 | 3.1 ± 0.1

From PMC4721528
